These results are taken from paper PMC6471336, “Production and Characterization of Recombinant Wild Type Uricase from Indonesian Coelacanth (L. menadoensis) and Improvement of Its Thermostability by In Silico Rational Design and Disulphide Bridges Engineering” (International Journal of Molecular Sciences, 2019).

Substrate in the series “purified protein”: O=c1[nH]c(=O)c2[nH]c(=O)[nH]c2[nH]1
Briefly: purified protein. The settings on record: 50 mM sodium borate pH 8.0, 30 °C, 15-120 µM uric acid. The class given is biochemical, Latimeria menadoensis.

Series [1] deals with the molecule itself. Briefly: SEC; 16/60 Sephacryl S-300 HR gel-filtration column; molecular weight under native condition calculated from the retention volume (Kav) against a calibration curve.

B1: L. menadoensis uricase, wild type (LM-UOX-6His) (enzyme, UniProt M3XGK0 1-306, looked up)
chain: MSHYVSSTRFQKDTDVEFVRTGYGKNIVKVLHIKREGKTHYIKEVEVAVQLALKSRKDYLYGDNSDIIPTDTMKNTVHALAKLKGINTIEEFAMDICEHFLTSFNHVTRANTYVEEAPWKRMEKNEVKHVHAFIYSPEATRFCEVEHHQNEPPVVHSGIKDMKVLKTTQSGFEGFVKDRFTTLPEVTDRCFSTVIYSKWLYNRSKNIDFDAAWKTVYDVIIEKFAGPYECGEYSPSVQKTLYETQVLCLNRVPEIEEVEIVMPNKHYFTIDMSKIGIVNKDEVLLPLDNPSGNITGTVRRKAHSKL
notes: Uricase (urate oxidase) of Latimeria menadoensis, 306 amino acids; synthetic cDNA amplified with primers from the start codon to the last codon (no stop codon), cloned NdeI/XhoI into pET20b(+); The His6 tag is joined to the protein by two residues from the XhoI site; also called WT; WT LM-UOX; source: E. coli BL21(DE3), purified (Ni-NTA IMAC, gel filtration); not shown: His6, C-terminal, kept
The term Km denotes the substrate concentration at which the rate is half of its maximum. Broadly, the kcat is the maximal rate divided by the concentration of active sites. Usually kcat/Km stands for the turnover number divided by the Michaelis constant. As usually defined, the stoichiometry N is the number of molecules, sites or subunits per partner or assembly. Take B1: in the series “purified protein”, the Michaelis constant (Km) stood at 18.43 ± 0.4 µM, the kcat was found to be 29.9 ± 0.3 s⁻¹ and the specificity constant (kcat/Km) amounted to 1.62e+06 M⁻¹ s⁻¹. In addition, the “stoichiometry N” value in series [1] is 4.

B2: L. menadoensis uricase A132C/A225C mutant (enzyme, UniProt M3XGK0 1-306, looked up)
chain: MSHYVSSTRFQKDTDVEFVRTGYGKNIVKVLHIKREGKTHYIKEVEVAVQLALKSRKDYLYGDNSDIIPTDTMKNTVHALAKLKGINTIEEFAMDICEHFLTSFNHVTRANTYVEEAPWKRMEKNEVKHVHCFIYSPEATRFCEVEHHQNEPPVVHSGIKDMKVLKTTQSGFEGFVKDRFTTLPEVTDRCFSTVIYSKWLYNRSKNIDFDAAWKTVYDVIIEKFCGPYECGEYSPSVQKTLYETQVLCLNRVPEIEEVEIVMPNKHYFTIDMSKIGIVNKDEVLLPLDNPSGNITGTVRRKAHSKL
notes: His6 tag joined by two residues from the XhoI site, as in m1; source: E. coli BL21(DE3), purified (Ni-NTA IMAC, gel filtration); not shown: His6, C-terminal, kept
On to B2, for which, in the series “purified protein”, the Km is 39.19 ± 0.5 µM, the kcat was determined as 58.2 ± 0.6 s⁻¹ and the kcat/Km was determined as 1.49e+06 M⁻¹ s⁻¹. Besides, the “stoichiometry N” value in series [1] was 4.

B3: L. menadoensis uricase D288C mutant (enzyme, UniProt M3XGK0 1-306, looked up)
chain: MSHYVSSTRFQKDTDVEFVRTGYGKNIVKVLHIKREGKTHYIKEVEVAVQLALKSRKDYLYGDNSDIIPTDTMKNTVHALAKLKGINTIEEFAMDICEHFLTSFNHVTRANTYVEEAPWKRMEKNEVKHVHAFIYSPEATRFCEVEHHQNEPPVVHSGIKDMKVLKTTQSGFEGFVKDRFTTLPEVTDRCFSTVIYSKWLYNRSKNIDFDAAWKTVYDVIIEKFAGPYECGEYSPSVQKTLYETQVLCLNRVPEIEEVEIVMPNKHYFTIDMSKIGIVNKDEVLLPLCNPSGNITGTVRRKAHSKL
notes: Uricase (urate oxidase) of Latimeria menadoensis, 306 amino acids, same construct as the wild type (pET20LM-UOX) with D288C by site-directed mutagenesis; His6 tag joined by two residues from the XhoI site, as in m1; source: E. coli BL21(DE3), purified (Ni-NTA IMAC, gel filtration); not shown: His6, C-terminal, kept
Turning to B3, in the series “purified protein”, the Km is reported as 189.65 ± 0.2 µM, the kcat worked out at 65.07 ± 0.3 s⁻¹ and the kcat/Km stood at 340000 M⁻¹ s⁻¹. Moreover, the “stoichiometry N” value in series [1] is 4.

B4: L. menadoensis uricase N289C mutant (enzyme, UniProt M3XGK0 1-306, looked up)
chain: MSHYVSSTRFQKDTDVEFVRTGYGKNIVKVLHIKREGKTHYIKEVEVAVQLALKSRKDYLYGDNSDIIPTDTMKNTVHALAKLKGINTIEEFAMDICEHFLTSFNHVTRANTYVEEAPWKRMEKNEVKHVHAFIYSPEATRFCEVEHHQNEPPVVHSGIKDMKVLKTTQSGFEGFVKDRFTTLPEVTDRCFSTVIYSKWLYNRSKNIDFDAAWKTVYDVIIEKFAGPYECGEYSPSVQKTLYETQVLCLNRVPEIEEVEIVMPNKHYFTIDMSKIGIVNKDEVLLPLDCPSGNITGTVRRKAHSKL
notes: Uricase (urate oxidase) of Latimeria menadoensis, 306 amino acids, same construct as the wild type (pET20LM-UOX) with N289C by site-directed mutagenesis; His6 tag joined by two residues from the XhoI site, as in m1; source: E. coli BL21(DE3), purified (Ni-NTA IMAC, gel filtration); not shown: His6, C-terminal, kept
In the case of B4, in “purified protein”, the Km was found to be 30.46 ± 0.1 µM, the kcat came out at 34.06 ± 0.1 s⁻¹ and the kcat/Km was 1.12e+06 M⁻¹ s⁻¹. Also, the “stoichiometry N” value in series [1] was 4.

B5: L. menadoensis uricase S136C mutant (enzyme, UniProt M3XGK0 1-306, looked up)
chain: MSHYVSSTRFQKDTDVEFVRTGYGKNIVKVLHIKREGKTHYIKEVEVAVQLALKSRKDYLYGDNSDIIPTDTMKNTVHALAKLKGINTIEEFAMDICEHFLTSFNHVTRANTYVEEAPWKRMEKNEVKHVHAFIYCPEATRFCEVEHHQNEPPVVHSGIKDMKVLKTTQSGFEGFVKDRFTTLPEVTDRCFSTVIYSKWLYNRSKNIDFDAAWKTVYDVIIEKFAGPYECGEYSPSVQKTLYETQVLCLNRVPEIEEVEIVMPNKHYFTIDMSKIGIVNKDEVLLPLDNPSGNITGTVRRKAHSKL
notes: Uricase (urate oxidase) of Latimeria menadoensis, 306 amino acids, same construct as the wild type (pET20LM-UOX) with S136C by site-directed mutagenesis; His6 tag joined by two residues from the XhoI site, as in m1; source: E. coli BL21(DE3), purified (Ni-NTA IMAC, gel filtration); not shown: His6, C-terminal, kept
As for B5, in the series “purified protein”, the Km worked out at 15.28 ± 0.1 µM, the kcat is 22.49 ± 0.1 s⁻¹ and the kcat/Km stood at 1.47e+06 M⁻¹ s⁻¹. Besides, in series [1], the “stoichiometry N” value was 4.

B6: L. menadoensis uricase I27C/N289C mutant (enzyme, UniProt M3XGK0 1-306, looked up)
chain: MSHYVSSTRFQKDTDVEFVRTGYGKNCVKVLHIKREGKTHYIKEVEVAVQLALKSRKDYLYGDNSDIIPTDTMKNTVHALAKLKGINTIEEFAMDICEHFLTSFNHVTRANTYVEEAPWKRMEKNEVKHVHAFIYSPEATRFCEVEHHQNEPPVVHSGIKDMKVLKTTQSGFEGFVKDRFTTLPEVTDRCFSTVIYSKWLYNRSKNIDFDAAWKTVYDVIIEKFAGPYECGEYSPSVQKTLYETQVLCLNRVPEIEEVEIVMPNKHYFTIDMSKIGIVNKDEVLLPLDCPSGNITGTVRRKAHSKL
notes: His6 tag joined by two residues from the XhoI site, as in m1; which cysteines pair (C27 with C289 of the other subunit of a dimer) is a prediction only; source: E. coli BL21(DE3), purified (Ni-NTA IMAC, gel filtration); not shown: His6, C-terminal, kept
On to B6, for which, in the series “purified protein”, the Km turned out to be 35.39 ± 0.1 µM, the kcat stood at 32.58 ± 0.2 s⁻¹ and the kcat/Km was 920000 M⁻¹ s⁻¹. In addition, in series [1], the “stoichiometry N” value was 4.
